Reference: patent US12630600B2 (MEDIMMUNE LIMITED, priority 2022, dated 2026)
Starred links: 1 amine or outer side, 2 acyl side, 3 side chain; linkers in the order of their positions; H or OH if unused. Non-standard residues stand in square brackets, D forms with d. Groups on a side chain read outwards from the residue. No end group written: not given here. *: point of attachment. C20 diacid = O=C(O)CCCCCCCCCCCCCCCCCCC(=O)*; C18 diacid = O=C(O)CCCCCCCCCCCCCCCCC(=O)*; γGlu = O=C(O)[C@H](CCC(=O)[*:2])N[*:1]; αMeF = C[C@](N)(Cc1ccccc1)C(=O)O; AEEA = NCCOCCOCC(=O)O; Aib = CC(C)(N)C(=O)O

What was measured:
human glucagon receptor = human glucagon receptor (human, UniProt P47871); assay: cell-based or functional assay
human GLP-1 receptor = human GLP-1 receptor (human, UniProt P43220); assay: cell-based or functional assay

Row | cAMP production EC50 (human glucagon receptor) [nM] | cAMP production EC50 (human GLP-1 receptor) [nM] | Binder
1 | 0.0224 | 0.0206 | H[Aib]QGTFTSDVSK[αMeF]LDKK([AEEA-AEEA-γGlu-C18 diacid])RARDFVRWLL[Aib]E-NH2 (N-terminus assumed; SMILES CC(C)C[C@H](NC(=O)[C@H](Cc1c[nH]c2ccccc12)NC(=O)[C@H](CCCNC(=N)N)NC(=O)[C@@H](NC(=O)[C@H](Cc1ccccc1)NC(=O)[C@H](CC(=O)O)NC(=O)[C@H](CCCNC(=N)N)NC(=O)[C@H](C)NC(=O)[C@H](CCCNC(=N)N)NC(=O)[C@H](CCCCNC(=O)COCCOCCNC(=O)COCCOCCNC(=O)CC[C@H](NC(=O)CCCCCCCCCCCCCCCCC(=O)O)C(=O)O)NC(=O)[C@H](CCCCN)NC(=O)[C@H](CC(=O)O)NC(=O)[C@H](CC(C)C)NC(=O)[C@](C)(Cc1ccccc1)NC(=O)[C@H](CCCCN)NC(=O)[C@H](CO)NC(=O)[C@@H](NC(=O)[C@H](CC(=O)O)NC(=O)[C@H](CO)NC(=O)[C@@H](NC(=O)[C@H](Cc1ccccc1)NC(=O)[C@@H](NC(=O)CNC(=O)[C@H](CCC(N)=O)NC(=O)C(C)(C)NC(=O)[C@@H](N)Cc1c[nH]cn1)[C@@H](C)O)[C@@H](C)O)C(C)C)C(C)C)C(=O)N[C@@H](CC(C)C)C(=O)NC(C)(C)C(=O)N[C@@H](CCC(=O)O)C(N)=O) [Peptide 443]
2 | 0.366 | 0.0329 | H[Aib]QGTFTSDVSK[αMeF]LDRK([AEEA-AEEA-γGlu-γGlu-C18 diacid])RAQDFVRWLV[Aib]E-NH2 (N-terminus assumed; SMILES CC(C)C[C@H](NC(=O)[C@H](Cc1c[nH]c2ccccc12)NC(=O)[C@H](CCCNC(=N)N)NC(=O)[C@@H](NC(=O)[C@H](Cc1ccccc1)NC(=O)[C@H](CC(=O)O)NC(=O)[C@H](CCC(N)=O)NC(=O)[C@H](C)NC(=O)[C@H](CCCNC(=N)N)NC(=O)[C@H](CCCCNC(=O)COCCOCCNC(=O)COCCOCCNC(=O)CC[C@H](NC(=O)CC[C@H](NC(=O)CCCCCCCCCCCCCCCCC(=O)O)C(=O)O)C(=O)O)NC(=O)[C@H](CCCNC(=N)N)NC(=O)[C@H](CC(=O)O)NC(=O)[C@H](CC(C)C)NC(=O)[C@](C)(Cc1ccccc1)NC(=O)[C@H](CCCCN)NC(=O)[C@H](CO)NC(=O)[C@@H](NC(=O)[C@H](CC(=O)O)NC(=O)[C@H](CO)NC(=O)[C@@H](NC(=O)[C@H](Cc1ccccc1)NC(=O)[C@@H](NC(=O)CNC(=O)[C@H](CCC(N)=O)NC(=O)C(C)(C)NC(=O)[C@@H](N)Cc1c[nH]cn1)[C@@H](C)O)[C@@H](C)O)C(C)C)C(C)C)C(=O)N[C@H](C(=O)NC(C)(C)C(=O)N[C@@H](CCC(=O)O)C(N)=O)C(C)C) [Peptide 446]
3 | 0.081 | 0.154 | H[Aib]QGTFTSDVSK[αMeF]LDKK([AEEA-AEEA-γGlu-C20 diacid])RARDFVRWLL[Aib]E-OH (N-terminus assumed; SMILES CC(C)C[C@H](NC(=O)[C@H](Cc1c[nH]c2ccccc12)NC(=O)[C@H](CCCNC(=N)N)NC(=O)[C@@H](NC(=O)[C@H](Cc1ccccc1)NC(=O)[C@H](CC(=O)O)NC(=O)[C@H](CCCNC(=N)N)NC(=O)[C@H](C)NC(=O)[C@H](CCCNC(=N)N)NC(=O)[C@H](CCCCNC(=O)COCCOCCNC(=O)COCCOCCNC(=O)CC[C@H](NC(=O)CCCCCCCCCCCCCCCCCCC(=O)O)C(=O)O)NC(=O)[C@H](CCCCN)NC(=O)[C@H](CC(=O)O)NC(=O)[C@H](CC(C)C)NC(=O)[C@](C)(Cc1ccccc1)NC(=O)[C@H](CCCCN)NC(=O)[C@H](CO)NC(=O)[C@@H](NC(=O)[C@H](CC(=O)O)NC(=O)[C@H](CO)NC(=O)[C@@H](NC(=O)[C@H](Cc1ccccc1)NC(=O)[C@@H](NC(=O)CNC(=O)[C@H](CCC(N)=O)NC(=O)C(C)(C)NC(=O)[C@@H](N)Cc1c[nH]cn1)[C@@H](C)O)[C@@H](C)O)C(C)C)C(C)C)C(=O)N[C@@H](CC(C)C)C(=O)NC(C)(C)C(=O)N[C@@H](CCC(=O)O)C(=O)O) [Peptide 440]
4 | 0.0728 | 0.0627 | H[Aib]QGTFTSDVSK[αMeF]LDKK([AEEA-AEEA-γGlu-C20 diacid])RAQDFVRWLL[Aib]E-NH2 (N-terminus assumed; SMILES CC(C)C[C@H](NC(=O)[C@H](Cc1c[nH]c2ccccc12)NC(=O)[C@H](CCCNC(=N)N)NC(=O)[C@@H](NC(=O)[C@H](Cc1ccccc1)NC(=O)[C@H](CC(=O)O)NC(=O)[C@H](CCC(N)=O)NC(=O)[C@H](C)NC(=O)[C@H](CCCNC(=N)N)NC(=O)[C@H](CCCCNC(=O)COCCOCCNC(=O)COCCOCCNC(=O)CC[C@H](NC(=O)CCCCCCCCCCCCCCCCCCC(=O)O)C(=O)O)NC(=O)[C@H](CCCCN)NC(=O)[C@H](CC(=O)O)NC(=O)[C@H](CC(C)C)NC(=O)[C@](C)(Cc1ccccc1)NC(=O)[C@H](CCCCN)NC(=O)[C@H](CO)NC(=O)[C@@H](NC(=O)[C@H](CC(=O)O)NC(=O)[C@H](CO)NC(=O)[C@@H](NC(=O)[C@H](Cc1ccccc1)NC(=O)[C@@H](NC(=O)CNC(=O)[C@H](CCC(N)=O)NC(=O)C(C)(C)NC(=O)[C@@H](N)Cc1c[nH]cn1)[C@@H](C)O)[C@@H](C)O)C(C)C)C(C)C)C(=O)N[C@@H](CC(C)C)C(=O)NC(C)(C)C(=O)N[C@@H](CCC(=O)O)C(N)=O) [Peptide 441]
5 | 0.684 | 0.033 | H[Aib]QGTFTSDVSK[αMeF]LETK([AEEA-AEEA-γGlu-C18 diacid])RARDFVQWLLE[Aib]G-OH [Peptide 445]
6 | 0.029 | 0.0531 | H[Aib]QGTFTSDVSK[αMeF]LDKK([AEEA-AEEA-γGlu-γGlu-C18 diacid])RARDFVRWLL[Aib]E-OH (N-terminus assumed; SMILES CC(C)C[C@H](NC(=O)[C@H](Cc1c[nH]c2ccccc12)NC(=O)[C@H](CCCNC(=N)N)NC(=O)[C@@H](NC(=O)[C@H](Cc1ccccc1)NC(=O)[C@H](CC(=O)O)NC(=O)[C@H](CCCNC(=N)N)NC(=O)[C@H](C)NC(=O)[C@H](CCCNC(=N)N)NC(=O)[C@H](CCCCNC(=O)COCCOCCNC(=O)COCCOCCNC(=O)CC[C@H](NC(=O)CC[C@H](NC(=O)CCCCCCCCCCCCCCCCC(=O)O)C(=O)O)C(=O)O)NC(=O)[C@H](CCCCN)NC(=O)[C@H](CC(=O)O)NC(=O)[C@H](CC(C)C)NC(=O)[C@](C)(Cc1ccccc1)NC(=O)[C@H](CCCCN)NC(=O)[C@H](CO)NC(=O)[C@@H](NC(=O)[C@H](CC(=O)O)NC(=O)[C@H](CO)NC(=O)[C@@H](NC(=O)[C@H](Cc1ccccc1)NC(=O)[C@@H](NC(=O)CNC(=O)[C@H](CCC(N)=O)NC(=O)C(C)(C)NC(=O)[C@@H](N)Cc1c[nH]cn1)[C@@H](C)O)[C@@H](C)O)C(C)C)C(C)C)C(=O)N[C@@H](CC(C)C)C(=O)NC(C)(C)C(=O)N[C@@H](CCC(=O)O)C(=O)O) [Peptide 448]
7 | 0.667 | 0.17 | H[Aib]QGTFTSDVSK[αMeF]LDRK([AEEA-AEEA-γGlu-γGlu-C20 diacid])RAQDFVRWLV[Aib]E-NH2 (N-terminus assumed; SMILES CC(C)C[C@H](NC(=O)[C@H](Cc1c[nH]c2ccccc12)NC(=O)[C@H](CCCNC(=N)N)NC(=O)[C@@H](NC(=O)[C@H](Cc1ccccc1)NC(=O)[C@H](CC(=O)O)NC(=O)[C@H](CCC(N)=O)NC(=O)[C@H](C)NC(=O)[C@H](CCCNC(=N)N)NC(=O)[C@H](CCCCNC(=O)COCCOCCNC(=O)COCCOCCNC(=O)CC[C@H](NC(=O)CC[C@H](NC(=O)CCCCCCCCCCCCCCCCCCC(=O)O)C(=O)O)C(=O)O)NC(=O)[C@H](CCCNC(=N)N)NC(=O)[C@H](CC(=O)O)NC(=O)[C@H](CC(C)C)NC(=O)[C@](C)(Cc1ccccc1)NC(=O)[C@H](CCCCN)NC(=O)[C@H](CO)NC(=O)[C@@H](NC(=O)[C@H](CC(=O)O)NC(=O)[C@H](CO)NC(=O)[C@@H](NC(=O)[C@H](Cc1ccccc1)NC(=O)[C@@H](NC(=O)CNC(=O)[C@H](CCC(N)=O)NC(=O)C(C)(C)NC(=O)[C@@H](N)Cc1c[nH]cn1)[C@@H](C)O)[C@@H](C)O)C(C)C)C(C)C)C(=O)N[C@H](C(=O)NC(C)(C)C(=O)N[C@@H](CCC(=O)O)C(N)=O)C(C)C) [Peptide 447]
8 | 1.76 | 0.247 | H[Aib]QGTFTSDVSK[αMeF]LETK([AEEA-AEEA-γGlu-C18 diacid])RARDFVQWLLE[Aib]G-OH (not fully specified) [Peptide 444]
9 | 0.0358 | 0.0191 | H[Aib]QGTFTSDVSK[αMeF]LDKK([AEEA-AEEA-γGlu-C18 diacid])RAQDFVRWLLE[Aib]G-NH2 (N-terminus assumed; SMILES CC(C)C[C@H](NC(=O)[C@H](Cc1c[nH]c2ccccc12)NC(=O)[C@H](CCCNC(=N)N)NC(=O)[C@@H](NC(=O)[C@H](Cc1ccccc1)NC(=O)[C@H](CC(=O)O)NC(=O)[C@H](CCC(N)=O)NC(=O)[C@H](C)NC(=O)[C@H](CCCNC(=N)N)NC(=O)[C@H](CCCCNC(=O)COCCOCCNC(=O)COCCOCCNC(=O)CC[C@H](NC(=O)CCCCCCCCCCCCCCCCC(=O)O)C(=O)O)NC(=O)[C@H](CCCCN)NC(=O)[C@H](CC(=O)O)NC(=O)[C@H](CC(C)C)NC(=O)[C@](C)(Cc1ccccc1)NC(=O)[C@H](CCCCN)NC(=O)[C@H](CO)NC(=O)[C@@H](NC(=O)[C@H](CC(=O)O)NC(=O)[C@H](CO)NC(=O)[C@@H](NC(=O)[C@H](Cc1ccccc1)NC(=O)[C@@H](NC(=O)CNC(=O)[C@H](CCC(N)=O)NC(=O)C(C)(C)NC(=O)[C@@H](N)Cc1c[nH]cn1)[C@@H](C)O)[C@@H](C)O)C(C)C)C(C)C)C(=O)N[C@@H](CC(C)C)C(=O)N[C@@H](CCC(=O)O)C(=O)NC(C)(C)C(=O)NCC(N)=O) [Peptide 442]
